The results in this text go back to patent publication US20260274955A1 (JANUX THERAPEUTICS, published 2026).

To fix the notation:
B1: Phage-765 (peptide)
peptide: YCEGHSSVYLWKCL
B2: Phage-764 (peptide)
peptide: YCEGHLREYMLKCL
B3: Phage-769 (peptide)
peptide: YCEGHIEPYMQKCL
B4: Phage-761 (peptide)
peptide: YCAGHSQVYMWKCL
B5: Phage-800 (peptide)
peptide: YCDGHLLMYMEKCL
B6: Phage-766 (peptide)
peptide: YCEGHSWIYIAKCL
B7: Phage-768 (peptide)
peptide: YCEGHRPEYMANCL
B8: Phage-804 (peptide)
peptide: YCEGHSSAYMAKCL
B9: Phage-763 (peptide)
peptide: YCFGHAPEYLLKCL
B10: Phage-759 (peptide)
peptide: YCDGHLAEYIQKCL
B11: Phage-762 (peptide)
peptide: YCEGHIEQYMRKCL
B12: Phage-770 (peptide)
peptide: YCDGHKPEYMDKCL
B13: Phage-760 (peptide)
peptide: YCAGHSSEYLQKCL
B14: Phage-767 (peptide)
peptide: YCDGHLEVYMSKCL
B15: Phage-771 (peptide)
peptide: YCDGHVGAYMWKCL
B16: Phage-730 (peptide)
peptide: YCAGHLPQYMHKCL
B17: Phage-731 (peptide)
peptide: YCDGHIWPWIEKCL
B18: Phage-729 (peptide)
peptide: YCDGHVVEYMSKCL
B19: Phage-727 (peptide)
peptide: YCDGHEAEYMWKCL
B20: Phage-732 (peptide)
peptide: YCEGHSSLYLEKCL
B21: Phage-578 (peptide)
peptide: YCEGHLDQYMTKCL
notes: on phage, pIII fusion
B22: Phage-507 (peptide)
peptide: YCDGHSVKYMAKCL
notes: on phage, pIII fusion
B23: Phage-510 (peptide)
peptide: YCDGHAQEYMVKCL
notes: on phage, pIII fusion
B24: Phage-575 (peptide)
peptide: YCAGHTVENMAKCL
notes: on phage, pIII fusion
B25: Phage-534 (peptide)
peptide: YCQGHLPQYVEKCL
notes: on phage, pIII fusion
B26: Phage-536 (peptide)
peptide: YCDGHSQEYMAHCL
notes: on phage, pIII fusion
B27: Phage-546 (peptide)
peptide: YCDGHTSEYMTKCL
notes: on phage, pIII fusion
B28: Phage-573 (peptide)
peptide: YCDGHLPEYITKCL
notes: on phage, pIII fusion
B29: Phage-585 (peptide)
peptide: YCEGHTPVYMPKCL
notes: on phage, pIII fusion
B30: Phage-535 (peptide)
peptide: YCEGHLDMYVWKCL
notes: on phage, pIII fusion
B31: Phage-583 (peptide)
peptide: YCDGHSLEYMVKCL
notes: on phage, pIII fusion
B32: Phage-508 (peptide)
peptide: YCSGHLPEYMWKCL
notes: on phage, pIII fusion
B33: Phage-537 (peptide)
peptide: YCDGHSPLYMVKCL
notes: on phage, pIII fusion
B34: Phage-517 (peptide)
peptide: YCAGHLDQYIEKCL
notes: on phage, pIII fusion
B35: Phage-584 (peptide)
peptide: YCEGHSLEHIAKCL
notes: on phage, pIII fusion
B36: Phage-576 (peptide)
peptide: YCEGHVLEYRGKCD
notes: on phage, pIII fusion
B37: Phage-514 (peptide)
peptide: YCEGHMPEYLQKCL
notes: on phage, pIII fusion
B38: Phage-580 (peptide)
peptide: YCDGHLAIYIGKCL
notes: on phage, pIII fusion
B39: Phage-538 (peptide)
peptide: YCDGHFLTYMTKCL
notes: on phage, pIII fusion
B40: Phage-511 (peptide)
peptide: YCAGHSPEYMQKCL
notes: on phage, pIII fusion
B41: Phage-513 (peptide)
peptide: YCEGHSAAYMQKCL
notes: on phage, pIII fusion
B42: Phage-509 (peptide)
peptide: YCDGHSVEYKLKCM
notes: on phage, pIII fusion
B43: Phage-518 (peptide)
peptide: YCDGHAQEFIWKCL
notes: on phage, pIII fusion
B44: Phage-544 (peptide)
peptide: YCDGHLPVYMMKCL
notes: on phage, pIII fusion
B45: Phage-574 (peptide)
peptide: YCEGHRPEYMQKCV
notes: on phage, pIII fusion
B46: Phage-582 (peptide)
peptide: YCDGHLLEYMSKCL
notes: on phage, pIII fusion
B47: Phage-516 (peptide)
peptide: YCDGHRLEYLEKCL
notes: on phage, pIII fusion
B48: Phage-541 (peptide)
peptide: YCEGHTLEYMWKCL
notes: on phage, pIII fusion
B49: Phage-533 (peptide)
peptide: YCDGHLPMYMKKCL
notes: on phage, pIII fusion
B50: Phage-540 (peptide)
peptide: YCDGHSEVYMSKCL
notes: on phage, pIII fusion
B51: Phage-512 (peptide)
peptide: YCEGHLPLYMDKCL
notes: on phage, pIII fusion
B52: Phage-542 (peptide)
peptide: YCDGHSQAHMQKCL
notes: on phage, pIII fusion
B53: Phage-581 (peptide)
peptide: YCDGHLEIYMSKCL
notes: on phage, pIII fusion
B54: Phage-577 (peptide)
peptide: YCDGHVAEYRHKCL
notes: on phage, pIII fusion
B55: Phage-539 (peptide)
peptide: YCAGHSEEYMDKCL
notes: on phage, pIII fusion
B56: Phage-579 (peptide)
peptide: YCAGHTQEYIEKCL
notes: on phage, pIII fusion
B57: Phage-545 (peptide)
peptide: YCAGHNAQYMSKCL
notes: on phage, pIII fusion
B58: Phage-519 (peptide)
peptide: YCDGHSEAYMWKCL
notes: on phage, pIII fusion
B59: Phage-543 (peptide)
peptide: YCAGHDQQYMEKCL
notes: on phage, pIII fusion
B60: Phage-515 (peptide)
peptide: YCDGHELQYMAKCL
notes: on phage, pIII fusion

T2 sequence (VH, as listed by the source, chain 1 of 2): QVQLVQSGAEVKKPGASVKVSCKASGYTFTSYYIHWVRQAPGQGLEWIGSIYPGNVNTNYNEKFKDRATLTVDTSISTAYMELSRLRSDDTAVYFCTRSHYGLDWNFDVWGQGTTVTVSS
T2 sequence (VL, as listed by the source, chain 2 of 2): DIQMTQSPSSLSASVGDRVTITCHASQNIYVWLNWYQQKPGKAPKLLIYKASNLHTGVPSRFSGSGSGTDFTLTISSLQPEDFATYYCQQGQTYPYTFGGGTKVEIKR

For the first experiment, the target named is Anti-CD28 Fab (SEQ ID NOs: 202, 203). Briefly: phage binding ELISA on captured Fab.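 Also: clonal phage supernatants added briefly to wells pre-incubated with CD28 antigen or with blocking buffer only, then washed, bound phage read by ELISA using HRP-coupled anti-M13 antibody.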 On the technique in general: In an ELISA, binding on a coated surface is turned into a signal by an enzyme label.
Target sequence in this assay (VH, as listed by the source, chain 1 of 2): as the sequence (VH, as listed by the source, chain 1 of 2) above
Target sequence in this assay (VL, as listed by the source, chain 2 of 2): as the sequence (VL, as listed by the source, chain 2 of 2) above
Description: (§1) Clonal phage were harvested as crude supernatants and screened via standard ELISAs. […] Prior to the addition of clonal phage, wells were incubated with blocking buffer and CD28 antigen or blocking buffer alone. Without washing or aspirating, clonal phage supernatants were then added to the wells and incubated for a short time. Wells were then washed followed by detection of bound phage using a horse radish conjugated anti-M13 antibody.
Regarding B1, the “Anti-CD28 Fab (SEQ ID NOs: 202, 203) signal” value (“Anti-CD28 Fab” for short) came out at 1.
B2: the “Anti-CD28 Fab” value was 1.01.
With B3, the “Anti-CD28 Fab” value turned out to be 0.99.
On the same count and under the same terms, as for B4, the figure is 1.02; as for B5, 0.91; as for B6, 1.
Turning to B7, the “Anti-CD28 Fab” value was 1.
For B8, the “Anti-CD28 Fab” value is 0.9.
Consider B9, for which the “Anti-CD28 Fab” value is 1.01.
For the molecule B10, the “Anti-CD28 Fab” value was determined as 1.04.
The same measure, in the same setting: with B11 the figure was 1.01.
Take B12: the “Anti-CD28 Fab” value is 0.99.
B13: the “Anti-CD28 Fab” value was 1.03.
On to B14, for which the “Anti-CD28 Fab” value was determined as 1.
Same read-out and setting: with B15 the figure was 0.99.

A further experiment addresses T1, Anti-CD28 Fab (SEQ ID NOs: 202, 203).
T1 construct: biotinylated and captured on neutravidin coated plates in the phage ELISA
Briefly: phage ELISA, Fab on plate.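 Also: crude clonal phage supernatants added to wells pretreated with blocking buffer with or without CD28 antigen, then bound phage read out via HRP-linked anti-M13 antibody.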
T1 sequence (VH, as listed by the source, chain 1 of 2): as the sequence (VH, as listed by the source, chain 1 of 2) above
T1 sequence (VL, as listed by the source, chain 2 of 2): as the sequence (VL, as listed by the source, chain 2 of 2) above
Description: After panning, phage infected bacteria were plated out and colonies picked into 96 well blocks. Clonal phage was then amplified and separated from bacterial cells via centrifugation.
Clonal phage were harvested as crude supernatants and screened via standard ELISAs. […] Prior to the addition of clonal phage, wells were incubated with blocking buffer and CD28 antigen or blocking buffer alone. Without washing or aspirating, clonal phage supernatants were then added to the wells and incubated for a short time. Wells were then washed followed by detection of bound phage using a horse radish conjugated anti-M13 antibody. Clonal phage of interest were then sent for sequence analysis.
For the molecule B16, the “Anti-CD28 Fab” value stood at 1.11.
On to B17, for which the “Anti-CD28 Fab” value amounted to 1.11.
On to B18, for which the “Anti-CD28 Fab” value turned out to be 1.12.
Consider B19, for which the “Anti-CD28 Fab” value was 1.13.
As to B20, the “Anti-CD28 Fab” value amounted to 1.11.

The next experiment concerns the target T2, anti-CD28 Fab (SEQ ID NOs: 202, 203).
T2 construct: biotinylated and captured on neutravidin coated plates in the phage ELISA
The experiment in a line: phage ELISA on captured Fab.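 Also: ELISA with clonal phage supernatants added to wells preincubated with CD28 antigen or with blocking buffer only, bound phage detected by HRP-conjugated anti-M13 antibody.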
Description: as §1
Take B21: the “Anti-CD28 Fab” value was 1.47.
On the same count and under the same terms, with B22 the figure was 1.61; with B23, 1.61.
For B24, the “Anti-CD28 Fab” value came out at 1.48.
Still for that read-out and setting: with B25 the figure was 1.57; with B26, 1.56.
As to B27, the “Anti-CD28 Fab” value turned out to be 1.54.
Still for that read-out and setting: with B28 the figure was 1.49.
In the case of B29, the “Anti-CD28 Fab” value came to 1.46.
For the molecule B30, the “Anti-CD28 Fab” value was determined as 1.56.
On to B31, for which the “Anti-CD28 Fab” value came to 1.46.
For the molecule B32, the “Anti-CD28 Fab” value was found to be 1.61.
On the same count and under the same terms, with B33 the figure was 1.56; with B34, 1.6.
The same measure, in the same setting: as for B35, the figure is 1.46.
For B36, the “Anti-CD28 Fab” value came to 1.48.
Regarding B37, the “Anti-CD28 Fab” value came out at 1.6.
B38: the “Anti-CD28 Fab” value amounted to 1.47.
The same measure, in the same setting: with B39 the figure was 1.56.
For B40, the “Anti-CD28 Fab” value was found to be 1.6.
Consider B41, for which the “Anti-CD28 Fab” value stood at 1.6.
For the molecule B42, the “Anti-CD28 Fab” value was 1.61.
With B43, the “Anti-CD28 Fab” value was 1.6.
Turning to B44, the “Anti-CD28 Fab” value is 1.55.
B45: the “Anti-CD28 Fab” value amounted to 1.48.
With B46, the “Anti-CD28 Fab” value was 1.46.
Consider B47, for which the “Anti-CD28 Fab” value stood at 1.6.
On to B48, for which the “Anti-CD28 Fab” value was 1.55.
In the case of B49, the “Anti-CD28 Fab” value was found to be 1.57.
Take B50: the “Anti-CD28 Fab” value came out at 1.55.
The same measure, in the same setting: with B51 the figure was 1.6.
With B52, the “Anti-CD28 Fab” value stood at 1.55.
In the case of B53, the “Anti-CD28 Fab” value worked out at 1.46.
As for B54, the “Anti-CD28 Fab” value was found to be 1.47.
In the case of B55, the “Anti-CD28 Fab” value stood at 1.55.
With B56, the “Anti-CD28 Fab” value stood at 1.47.
On to B57, for which the “Anti-CD28 Fab” value was 1.55.
Consider B58, for which the “Anti-CD28 Fab” value turned out to be 1.59.
Consider B59, for which the “Anti-CD28 Fab” value is 1.55.
Turning to B60, the “Anti-CD28 Fab” value is 1.6.
